The values below come from patent publication US11045560B2, “Therapeutic conjugates with sulfated dendrimers for intracellular targeting” (IC DISCOVERY GMBH, priority 2014, dated 2021).

No end group written: not given here. d02 = not defined here

For test [1], the system named is HT29, HepG2, QGP-1, A431, MCF-7, A2780. Conditions: for % uptake: FACS, relative to ICC-d01, range from different cell lines, incubation 24 h, conjugates additionally ICC-labeled, fluorescence-corrected.
Description: The human cancer cell lines A2780 and QGP-1 are cultured in RPMI medium, with 10% fetal calf serum (FCS), 2% glutamine, and penicillin/streptomycin added. All cells are seeded into medium at 1×10^5 cells/ml, cultured at 37° C. with 5% CO2, and split 1:5 two times a week. The epithelial human cancer cell lines A549, MCF7, HaCaT, and HepG2 are propagated in DMEM medium (PAN Biotech), with 10% fetal FCS, 2% glutamine, and penicillin/streptomycin. Cells are seeded into medium at 1×10^5 cells/ml (37° C. with 5% CO2, split 1:5 two times a week). HT29 cells are cultured in McCoy's medium (PAN biotech), with 10% FCS), 2% glutamine, and penicillin/streptomycin. Cells are seeded into medium at 1×10^5 cells/ml (37° C. with 5% CO2, split 1:10 two times a week). […] Afterwards, cells are fixed with cold acetone, rinsed and covered with 4,6-diamidino-2-phenylindole (DAPI, Abcam) for nuclear counterstain. Image acquisition is performed using a Leica DMRB microscope (Leica). Images are taken with a digital camera (Spot 32, Diagnostic Instruments) with the same exposure time for all pictures. […] This amount and time is sufficient to measure the supernatant after pooling and cell lysis with DMSO.
For FACS studies, 2×10^5 cells/ml cells are cultured in 24-well plates with normal culture medium or medium containing different concentrations of test substances for 3 or 24 hours. Thereafter, cells are washed with PBS and detached with 200 μl/well accutase (PAA) and washed two times with PBS. Cells are fixed with 500 μl 3% paraformaldehyde for 10 min at 4° C., stopped with 2 ml PBS and centrifuged with 250×g, for 10 min at 4° C. Supernatants are removed and cells were suspended in 200 μl PBS with 0.5% bovine serum albumin (Roth).
Fixed cells are kept at 4° C. until analysis in a FACS Calibur instrument (Becton-Dickinson).
For test [2] the test system is unchanged. The test can be described thus: Inhibition of cell proliferation measured by MTT test. Type of test: cell-based, human.
In test [3] the test system is HT29, HepG2, QGP-1, MCF-7. Briefly: Inhibition of cell proliferation by MTT test, comparison to sulfated polymer. Type of test: cell-based, human. As to conditions: range from 4 cell lines (Table 8). The protocol:
For cytotoxicty measurements, 2×10^5 cells were incubated with 1 ml culture medium containing increasing concentrations of test substances. After 72 hs treatment, cell number, viability and cell diameter as parameter of apoptotic processes were analyzed in a cell counter and analyzer system (CASY®, Schärfe Systems). In addition, drug cytotoxicity was assessed in vitro using the MTT assay (cellular reduction of 3-(4,5-dimethylthiazol-2-yl)-2,5-diphenyltetrazolium bromide) as a test for metabolic activity of the cells. 1×10^4 cells per well were seeded in 96-well plates in 100 μl culture medium containing increasing concentration of the test substance. 10 μl MTT (5 mg/ml in PBS, obtained from Sigma) was added to each well and the plates were incubated for 4 hrs, 24 hrs, 48 hrs or up to 72 h. The resulting formazan product was dissolved with acid isopropanol and the absorbance at a wavelength of 570 nm (Ex570) was read on a Microplate Spectrophotometer (Anthos htII, Microsystems). In a couple of experiments, medium with test substances was removed after 48 hs, cells were counted and identical cell numbers with new medium without test substances were seeded in new plates. MTT assay was performed after further incubation for 72 hours.
This polymer is functionalized with the linker maleimido-PEG(4)-COOH NHS ester as described in example 2a, and further purified via RP chromatography. […]

Another test relates to QGP-1 tumor cells. The test can be described thus: Uptake into QGP-1 cells by FACS in presence of genistein or rifamycin. In kind it is cell-based, human. As to conditions: for uptake +genistein (%) / uptake +rifamycin (%): relative to without inhibitor; for uptake w/o inhibitor (%): without inhibitor defined as 100%. The protocol: Studies on cellular uptake measured by FACS were conducted as described in example 13. Compound Asp-d13 is incubated at a concentration of 10^−7 M in QGP-1 tumor cells for 3 h and 6 h. Incubation is done in the presence of one of the following two substrates: (1) 0.1 mM genistein, an inhibitor for endocytotic uptake (Rejman et al., Mol. Ther. 2005, 12, 468-474) or (2) 50 mM rifamycin, an inhibitor of uptake via organic anion transporter proteins (OATP; Bi et al., Drug Metab Dispos. 2012, 40, 1085-92).

Where [4] appears, read: range from different cell lines (Table 6).
The mark [5] stands for this setting: range from different cell lines, peptide-dendrimer conjugates (Table 7).

In the case of DNase, the “% uptake” value in test [1] is on record as 4-12%. The molecule also registered an IC50 in test [2] (setting [4]) of more than 2000 nM.
The matching figures for Diphtheria toxin: 8-10% and more than 500 nM.
In turn, “d02-P1: peptide P1 conjugated to maleimido dendrimer d02 (CGMRPEIWIAQELRRIGDEFNA; conjugated to maleimido dendrimer d02; BIM)” displayed an IC50 in test [2] (setting [5]) of 900 to 2100 nM.
“d02-P5: peptide P5 conjugated to maleimido dendrimer d02 (C(d02)GEEQWAREIGAQLRRMADDLNAQYER-NH2; reading uncertain; also: conjugated via N-terminal Cys thiol to maleimido dendrimer d02)” returned an IC50 in test [2] (setting [5]) of 800 to 2000 nM.
The same measure, in the same setting: for “d02-P6: peptide P6 conjugated to maleimido dendrimer d02 (C(d02)GEDIIRNIARHAAQVGASADRSI-NH2; reading uncertain; also: conjugated via N-terminal Cys thiol to maleimido dendrimer d02)” the value was 1200 to 2300 nM.
As to saporin, the “% uptake” value in test [1] is given as 5-8%. The IC50 in test [3] and in test [2] (setting [4]) was more than 1000 nM in each case.

B1: L-asparaginase (protein, UniProt P00805 23-348, looked up)
L-asparaginase 2: LPNITILATGGTIAGGGDSATKSNYTVGKVGVENLVNAVPQLKDIANVKGEQVVNIGSQDMNDNVWLTLAKKINTDCDKTDGFVITHGTDTMEETAYFLDLTVKCDKPVVMVGAMRPSTSMSADGPFNLYNAVVTAADKASANRGVLVVMNDTVLDGRDVTKTNTTDVATFKSVNYGPLGYIHNGKIDYQRTPARKHTSDTPFDVSKLNELPKVGIVYNYANASDLPAKALVDAGYDGIVSAGVGNGNLYKSVFDTLATAAKTGTAVVRSSRVPTGATTQDAEVDDAKYGFVASGTLNPQKARVLLQLALTQTKDPQQIQQIFNQY
notes: enzyme, homotetramer of 4 units of 34 kDa (L-asparaginase 5000E, Medac), without dendrimer
For the molecule B1, in test [1], the “% uptake” value is given as 4-7%. In test [1] (in words, referring to example 15), the “uptake into tumor cells” value is given as “do not show uptake into tumor cells”. In test [2] (setting [4]), this molecule had an IC50 of more than 1500 nM.

B2: Asp-d13: L-asparaginase conjugated with maleimido dendrimer d13 (conjugate, UniProt P00805 23-348, looked up)
L-asparaginase 2: LPNITILATGGTIAGGGDSATKSNYTVGKVGVENLVNAVPQLKDIANVKGEQVVNIGSQDMNDNVWLTLAKKINTDCDKTDGFVITHGTDTMEETAYFLDLTVKCDKPVVMVGAMRPSTSMSADGPFNLYNAVVTAADKASANRGVLVVMNDTVLDGRDVTKTNTTDVATFKSVNYGPLGYIHNGKIDYQRTPARKHTSDTPFDVSKLNELPKVGIVYNYANASDLPAKALVDAGYDGIVSAGVGNGNLYKSVFDTLATAAKTGTAVVRSSRVPTGATTQDAEVDDAKYGFVASGTLNPQKARVLLQLALTQTKDPQQIQQIFNQY
modifications: maleimido dendrimer d13 conjugate
For the molecule B2, the “FACS signal in the presence of genistein relative to without inhibitor” value with QGP-1 tumor cells (10^−7 M, 3 h and 6 h, 0.1 mM genistein) is recorded as 80-85%. Also, the “FACS signal in the presence of rifamycin relative to without inhibitor” value in the test with QGP-1 tumor cells (10^−7 M, 3 h and 6 h, 50 mM rifamycin) was 37-40%. Further, the IC50 in test [2] (setting [4]) lay within 10 to 20 nM.

B3: Asp-polyglycerolsulfate: L-asparaginase coupled to a polyglycerolsulfate, mean molecular weight 12000 Da, according to WO2011/095311 (conjugate, UniProt P00805 23-348, looked up)
L-asparaginase 2: LPNITILATGGTIAGGGDSATKSNYTVGKVGVENLVNAVPQLKDIANVKGEQVVNIGSQDMNDNVWLTLAKKINTDCDKTDGFVITHGTDTMEETAYFLDLTVKCDKPVVMVGAMRPSTSMSADGPFNLYNAVVTAADKASANRGVLVVMNDTVLDGRDVTKTNTTDVATFKSVNYGPLGYIHNGKIDYQRTPARKHTSDTPFDVSKLNELPKVGIVYNYANASDLPAKALVDAGYDGIVSAGVGNGNLYKSVFDTLATAAKTGTAVVRSSRVPTGATTQDAEVDDAKYGFVASGTLNPQKARVLLQLALTQTKDPQQIQQIFNQY
modifications: polyglycerolsulfate conjugate, 12000 Da
B3: the “uptake +genistein (%)” value turned out to be 50% with QGP-1 tumor cells (3 h, 0.1 mM genistein) and 55% in the test on QGP-1 tumor cells (6 h, 0.1 mM genistein). Also, the “uptake +rifamycin (%)” value amounted to 76% in the test with QGP-1 tumor cells (3 h, 50 mM rifamycin) and 72% in the test with QGP-1 tumor cells (6 h, 50 mM rifamycin). Further, the “uptake w/o inhibitor (%)” value with QGP-1 tumor cells (3 h) and in the test on QGP-1 tumor cells (6 h) was 100% each time. In addition, in the test on QGP-1 tumor cells (inhibition by genistein, in words), the “dependency of uptake on endocytosis” value is recorded as “endocytosis could be identified due to inhibition by genistein”.
